Test results from the supplement of paper PMC9732359.
± gives the uncertainty stated by the source.

Assay: protein stability index of a GFP-peptide fusion (yeast GPS) (PSI 1-4); higher = more stable; sorted into four equal gates, so the index is relative within each strain
Procedure, shortened: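 Each library plasmid carries Cherry plus GFP with a tiled 17-residue yeast protein peptide fused downstream, and the pooled library was carried in yeast. Mid-log cultures in leucine-free medium were sorted into four equal gates by GFP/Cherry ratio. Reads from Illumina sequencing of PCR-amplified plasmids from each gate were assigned to strains by barcodes. Per peptide, the protein stability index was computed as the summed products of gate read frequency and gate number.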

Row | Sequence | protein stability index (doa10∆) | protein stability index (pdr5∆) | protein stability index (san1∆) | protein stability index (ubr1∆)
1 | PFGAKSTKSNKAKNPLT [RPL8B] | 3.38 ± 0.094 | 3.1 ± 0.067 | 2.98 ± 0.061 | 2.93 ± 0.091
2 | EDNGIVKALRNVPGVET [RPL4A] | 1.77 ± 0.16 |  | 2.46 ± 0.11 | 2.47 ± 0.19
3 | LNVAEIITSGRDTREVL [ARP9] | 3.35 ± 0.14 | 3.25 ± 0.089 | 3.44 ± 0.051 | 3.43 ± 0.081
4 | GKTNIALLTVLKALSHH [BRR2] | 2.19 ± 0.058 | 1.54 ± 0.05 | 2.14 ± 0.069 | 2 ± 0.057
5 | DNVSKNALDKLRNNLNS [YCG1] | 3.23 ± 0.12 | 3.19 ± 0.13 | 2.24 ± 0.29 | 3.01 ± 0.17
6 | VRSTIKFQLKKVLCLAV [RPL1A] | 1.45 ± 0.051 | 1.35 ± 0.053 | 1.29 ± 0.089 | 1.18 ± 0.037
7 | KINTRGAEDPKVLINDQ [SWI1] | 3.02 ± 0.2 | 3.34 ± 0.13 | 3.26 ± 0.14 | 3.11 ± 0.054
8 | NLQVELLSEHDDHNGEV [YGL100W/SEH1] | 3.12 ± 0.088 | 3.2 ± 0.071 | 2.83 ± 0.06 | 3.37 ± 0.055
9 | AILKLLENMPHPWEQAK [PRP8] | 2.76 ± 0.12 | 2.05 ± 0.088 | 1.93 ± 0.13 | 2.16 ± 0.057
10 | NDNNSPHTPVTRKGYIP [YLR018C/POM34] | 3.1 ± 0.081 | 2.88 ± 0.073 | 2.85 ± 0.078 | 3.01 ± 0.055
11 | VVGRTTRSNPPFKRKML [REC8] | 2.59 ± 0.06 | 2.77 ± 0.059 | 2.71 ± 0.055 | 2.75 ± 0.054
12 | SFCGFLLYYIPSLELSA [YJR042W/NUP85] | 1.65 ± 0.051 | 1.58 ± 0.065 | 1.57 ± 0.1 | 1.95 ± 0.059
13 | FFMSERSSRLHIVYSLL [YML103C/NUP188] | 1.91 ± 0.06 | 2.33 ± 0.079 | 1.55 ± 0.11 | 2.08 ± 0.053
14 | KTDQEEEREGTDQSTEE [CSL4] | 3.12 ± 0.16 |  |  | 
15 | DLGIKYDPSIGIFGMDF [RPL11A] | 2.85 ± 0.04 | 3.06 ± 0.041 | 2.96 ± 0.039 | 3 ± 0.037
16 | RMKSITSTSQKIPSASI [SNF5] | 3.2 ± 0.082 | 3.18 ± 0.072 | 3.17 ± 0.045 | 3.08 ± 0.051
17 | TMGEETAKKDMSSTTPK [SNF12] | 2.58 ± 0.07 | 3.03 ± 0.076 | 3.31 ± 0.1 | 3.27 ± 0.079
18 | DELDQEILNLSTQELQT [RPT5] | 3.21 ± 0.084 | 3.15 ± 0.09 | 3.14 ± 0.06 | 3.13 ± 0.078
19 | MEYLKSSKSLDLNTRIS [RPN5] | 2.83 ± 0.057 | 1.69 ± 0.051 | 2.34 ± 0.063 | 2.61 ± 0.055
20 | IGDVDGLIVNPVKVSGT [POP5] | 2.73 ± 0.048 | 3.02 ± 0.046 | 2.66 ± 0.035 | 2.64 ± 0.035
21 | NNKFANKIIPNVGLCIT [RPC25] | 2.71 ± 0.07 | 3.04 ± 0.082 | 2.94 ± 0.054 | 3 ± 0.081
22 | APVETKKKRFEIKKWTA [HRT1] | 3.15 ± 0.094 | 3.48 ± 0.13 | 2.93 ± 0.12 | 3.27 ± 0.09
23 | QPASYHSVQETNKISPK [SSN2] | 3.34 ± 0.098 | 3.1 ± 0.12 | 3.08 ± 0.068 | 1.91 ± 0.069
24 | FKTYRNETIIDNFSPHQ [SMC3] | 1.97 ± 0.17 | 1.42 ± 0.18 | 2.76 ± 0.21 | 
25 | KIEGVATPQDAQFYLGK [RPL33A] | 2.78 ± 0.086 | 3.12 ± 0.07 | 3.3 ± 0.063 | 3.25 ± 0.083
26 | GGVPTTSFGQPQSAPNQ [YOR098C/NUP1] | 2.33 ± 0.071 | 1.99 ± 0.085 | 2.36 ± 0.11 | 2.15 ± 0.095
27 | AQQQKRGGFGGRNRGRP [RPS2] | 3.32 ± 0.17 | 3.26 ± 0.13 | 3.31 ± 0.069 | 3.51 ± 0.15

Row | Sequence | protein stability index (doa10∆) | protein stability index (pdr5∆) | protein stability index (san1∆) | protein stability index (ubr1∆)
28 | KILNLEKPLILADYIVE [NUT1] | 1.58 ± 0.1 | 1.56 ± 0.061 | 1.22 ± 0.18 | 1.3 ± 0.07
29 | KNINIGKHSQEQNSSSA [SIR4] | 3 ± 0.072 | 3.13 ± 0.082 | 3.29 ± 0.1 | 3.25 ± 0.057
30 | LYLKVIPMDFIRNVLVT [SSN2] | 1.36 ± 0.094 | 1.11 ± 0.16 | 1.4 ± 0.23 | 1.29 ± 0.16
31 | FSRFVDQFIRHVLRGVE [YCG1] | 3.37 ± 0.25 | 1.5 ± 0.1 |  | 1.72 ± 0.16
32 | PKDKAIKRMAIRNIVEA [RPS26A] | 1.25 ± 0.068 | 1.63 ± 0.096 | 1.9 ± 0.15 | 1.95 ± 0.054
33 | MQKHGYIGEFEYIDDHR [RPS22A] | 3.16 ± 0.083 | 3.19 ± 0.084 | 2.93 ± 0.07 | 3.24 ± 0.093
34 | LDENKWYKFNDDKVSVV [UBP6] | 2.87 ± 0.12 | 3.06 ± 0.091 | 3.06 ± 0.1 | 2.97 ± 0.081
35 | FRRDFLLREYDILSQIL [YJL039C/NUP192] | 1.81 ± 0.12 | 2.32 ± 0.1 | 2.08 ± 0.11 | 2.27 ± 0.06
36 | DEIHIPAPSKPVIDYEL [BRR2] | 3.19 ± 0.073 | 3.08 ± 0.077 | 2.88 ± 0.059 | 2.78 ± 0.061
37 | PQDDDSQSKMMSSQISS [MTR3] | 3.14 ± 0.074 | 3.17 ± 0.071 | 3.15 ± 0.043 | 3.27 ± 0.053
38 | MNVSTSTFQTRRRRLKK [RPB4] | 3.39 ± 0.2 | 3.43 ± 0.13 |  | 3.38 ± 0.14
39 | NVQLRDVIATEPQGAVT [SMD3] | 2.96 ± 0.069 | 2.98 ± 0.1 | 2.39 ± 0.09 | 2.67 ± 0.071
40 | MSPFLRKVVKPSSLNSD [SRB4] | 2.41 ± 0.058 | 2.87 ± 0.061 | 2.03 ± 0.081 | 2.34 ± 0.044
41 | ERDCVIAYGASQLLLER [RET1] | 1.18 ± 0.058 | 1.28 ± 0.057 | 1.24 ± 0.14 | 1.11 ± 0.051
42 | TVVISQKKVPDKLLDPT [SCL1] | 2.85 ± 0.1 | 2.31 ± 0.085 | 3.23 ± 0.064 | 2.86 ± 0.068
43 | TKEVESNIITKSLVQYI [DIS3] | 2.71 ± 0.14 | 3.05 ± 0.11 | 2.65 ± 0.076 | 2.87 ± 0.19
44 | QLLIIEKEWENAIRIGE [SRP72] | 1.44 ± 0.052 | 1.69 ± 0.054 | 2.09 ± 0.12 | 2.21 ± 0.044
45 | FTFGLTVVQVYDNGQVF [RPP0] | 1.26 ± 0.09 | 1.3 ± 0.1 | 1.36 ± 0.28 | 1.39 ± 0.16
46 | VQLPILKIIYTGLCSFD [YJL039C/NUP192] | 1.41 ± 0.055 | 1.76 ± 0.043 | 1.26 ± 0.12 | 1.76 ± 0.058
47 | GSLSGNSSSMEEVMRIA [ESC2] | 2.9 ± 0.074 | 2.88 ± 0.11 | 2.45 ± 0.12 | 2.73 ± 0.083
48 | YWVPDWDGVIPTPAIIK [RPO21] | 2.34 ± 0.14 | 2.7 ± 0.096 | 2.8 ± 0.081 | 2.8 ± 0.079
49 | NNLKNSGNSANNMNVNM [GAL11] | 2.92 ± 0.046 | 2.9 ± 0.041 | 2.87 ± 0.035 | 3.02 ± 0.039
50 | SIEMEEETDDEDKQNIE [RRI2] | 3.25 ± 0.13 | 3.32 ± 0.11 | 3.39 ± 0.062 | 3.19 ± 0.061
51 | LTQEELERIVQIMQNPT [RPS18A] | 2.64 ± 0.099 | 3.08 ± 0.11 | 2.93 ± 0.064 | 2.75 ± 0.12
52 | DIIWLQRDLGLYVVGLF [RRP6] | 2.27 ± 0.062 | 2.22 ± 0.099 | 1.4 ± 0.1 | 2.29 ± 0.12
53 | SKMLDAASSQVSIVKLD [SNF12] | 2.89 ± 0.086 | 2.89 ± 0.11 | 3.03 ± 0.096 | 2.95 ± 0.091
